Earlier results, collected in article PMC2833280.

Columns and labels:
Test in all cases: kinetics
Lys443 [1] = molecular target: Lys443 (UniProt position 443, IVWRKKIGIHE); details: enzyme-ATP complex and free CMPr (kcat/Km)
Glu380 = Glu380 (UniProt position 380, TRWTGEFATHG)
Lys443 [2] = molecular target: Lys443 (UniProt position 443, TVNRPKLGVHE); details: enzyme-substrate complexes (kcat)

Substance | pKa (Lys443 [1]) | pKa (Glu380; enzyme-ATP complex and free CMPr (kcat/Km)) | pKa (Glu380; enzyme-substrate complexes (kcat)) | pKa (Lys443 [2])
Carbapenam synthetase (CPS, CarA) (Pectobacterium carotovorum (printed 'Pectobacterium carotorova'; formerly Erwinia carotovora)) | 10.0 ± 0.1 | 7.8 ± 0.1 | 7.4 ± 0.1 | –
beta-Lactam synthetase (beta-LS) (Streptomyces clavuligerus (printed 'Streptomyces clavuligerous')) | – | – | – | 8.07 ± 0.05
